The target of assay [1] is Mouse recombinant MGL2 (macrophage galactose binding lectin 2) (mouse). Kind of assay: competition ELISA on MGL2-coated plate; 10 µg/mL Tn-BSA against 10 µg/mL biotinylated TF-PS A1 probe 25b (a polysaccharide) as competitor. (In general: An ELISA detects its analyte on a solid surface through an enzyme-linked reagent.)
The target is the same in assay [2]. In words: competition ELISA on MGL2-coated plate; 10 µg/mL Tn-BSA against 10 µg/mL biotinylated Tn-PS A1 probe 25a (a polysaccharide) as competitor.
In assay [3] the target is Tn-BSA (Tn antigen conjugated to bovine serum albumin) (bovine) (UniProt P02769). In words: ELISA titration of purified IgM, Tn-BSA coated plates.
Chain of UniProt P02769 (P02769 25-607 limits assumed, form in doubt): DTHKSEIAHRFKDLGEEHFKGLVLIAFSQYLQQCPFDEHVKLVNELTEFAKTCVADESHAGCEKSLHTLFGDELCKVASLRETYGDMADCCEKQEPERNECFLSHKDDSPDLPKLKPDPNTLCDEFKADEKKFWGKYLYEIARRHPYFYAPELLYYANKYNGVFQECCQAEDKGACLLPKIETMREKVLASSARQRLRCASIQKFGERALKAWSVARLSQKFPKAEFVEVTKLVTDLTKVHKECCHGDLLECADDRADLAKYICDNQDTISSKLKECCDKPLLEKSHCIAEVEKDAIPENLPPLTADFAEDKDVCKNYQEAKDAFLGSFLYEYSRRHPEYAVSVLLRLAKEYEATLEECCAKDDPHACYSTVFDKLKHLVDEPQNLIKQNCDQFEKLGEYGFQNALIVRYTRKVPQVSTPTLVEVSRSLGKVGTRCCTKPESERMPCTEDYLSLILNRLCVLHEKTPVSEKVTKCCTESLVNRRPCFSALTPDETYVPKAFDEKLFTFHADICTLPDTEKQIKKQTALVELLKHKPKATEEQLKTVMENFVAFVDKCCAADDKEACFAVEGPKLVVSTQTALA

With “Tn-BSA (Tn antigen conjugated to bovine serum albumin) (from UniProt P02769 25-607)”, the percent inhibition in assay [1] turned out to be 64%; in assay [2], 44%.

B1: Kt-IgM-8 (antibody, V domains shown)
VH: QIQLVQSGPELKKPGETVKISCKASGYTFTTYGMSWVKQAPGKGLKWMGWINTYSGVPTYADDFKGRFAFSLETSASTAYLQINNLKNEDTATYFCARHYYGGAYWGQGTLVTVSA
VL: QIVLTQSPAIMSASPGEKVTMTCSASSSVSYMHWYQQKSGTSPKRWIYDTSKLASGVPARFSGSGSGTSYSLTISSMEAEDAATYYCQQWSSNPLTFGAGTKLELK
Turning to B1, the optical density (O.D.) at 0.3 µg/mL antibody in assay [3] is greater than 0.2 O.D.

Source of the values: patent US20190345255A1.
